± gives the standard deviation of the averaged measurements.

In data set [1] the test system is Saccharomyces cerevisiae. Kind of data set: protein stability index of tFT-peptide fusion in wild type (PSI (0-1 scale)); higher = more stable (slower turnover). The note with it: genetic background: wild type. Here is the method:
(§1)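 MPS profiling in S. cerevisiae of two library types built from selected 12-aa C-degron peptides (IN1, IN2, LN1, LN3, VN2, R1-R5, W1-W3, Atg1 and Rpa12 C-termini): saturation mutagenesis libraries and C-terminal +1 capping libraries (13 aa). Each peptide is fused to the C-terminus of a sfGFP-mCherry timer, after a GGGS linker. Cells are FACS-sorted into 8 mCherry/sfGFP bins and sequenced. PSI runs from 0 (unstable) to 1 (stable), measured once in wild type and in the das1Δ or doa10Δ background.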

For data set [2], the system named is Saccharomyces cerevisiae. Kind of data set: protein stability index of tFT-peptide fusion in deletion strain of DAS1 (PSI (0-1 scale)); higher = more stable (slower turnover). Here is the method: as §1
Data set [3] relates to Saccharomyces cerevisiae. Kind of data set: protein stability index of tFT-peptide fusion (C-terminal peptide) (PSI (0-1 scale)); higher = more stable (slower turnover). The note with it: temperature: 30 C. How it is done:
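MPS profiling in S. cerevisiae of the yeast C-terminome library: the last 12 aa of each annotated ORF are fused to the C-terminus of a sfGFP-mCherry timer, after a GGGS linker. Cells are FACS-sorted into 8 mCherry/sfGFP bins and deep-sequenced. PSI runs from 0 (unstable) to 1 (stable); wild type and das1Δ backgrounds, two technical replicates each.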

Where [4] appears, read: genetic background: das1 deletion.
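Throughout, for protein stability index of tFT-peptide fusion in deletion strain of DAS1: PSI is a weighted mean of each variant's read distribution over the sorted stability bins, computed only for variants having over 10 reads in total.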
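Throughout, for protein stability index of tFT-peptide fusion in wild type: PSI derived as read-weighted mean over the 8 sorting bins, only variants exceeding 10 total reads kept, mCherry placed adjacent to the peptide and sfGFP distal.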

Take ARHRVGLWRGAS: the figures for the protein stability index with Saccharomyces cerevisiae [1] and in the data set with Saccharomyces cerevisiae [2] were 0.603 and 0.689, respectively.

As for ARWCVGLWRGAS, the protein stability index in the data set on Saccharomyces cerevisiae [1] was determined as 0.357; in the data set with Saccharomyces cerevisiae [2], 0.7.

Take ARWFVGLWRGAS: the protein stability index worked out at 0.345 in the data set with Saccharomyces cerevisiae [1] and 0.699 in the data set on Saccharomyces cerevisiae [2].

ARWKVGLWRGAS: the protein stability index in the data set on Saccharomyces cerevisiae [1] is 0.32; in the data set on Saccharomyces cerevisiae [2] it was 0.673.

For the sequence ARWRKGLWRGAS, the protein stability index with Saccharomyces cerevisiae [1] stood at 0.657; in the data set on Saccharomyces cerevisiae [2] it was 0.697.

For the sequence ARWRRGLWRGAS, the protein stability index with Saccharomyces cerevisiae [1] was found to be 0.55; in the data set with Saccharomyces cerevisiae [2], 0.692.

Take ARWRTGLWRGAS: the values for the protein stability index in the data set with Saccharomyces cerevisiae [1] and with Saccharomyces cerevisiae [2] were 0.474 and 0.679, respectively.

On to ARWRVDLWRGAS, for which the values for the protein stability index in the data set on Saccharomyces cerevisiae [1] and with Saccharomyces cerevisiae [2] were 0.214 and 0.728, respectively.

Turning to VGVERLLNDRFR [ARP4 C-terminal 12 aa], the figures for the protein stability index in the data set on Saccharomyces cerevisiae [3] (setting [4]) and in the data set with Saccharomyces cerevisiae [3] (genetic background: wild type) were 0.6944 ± 0.0026 and 0.695 ± 0.028, respectively.

As to VKKSNWSNYFKS [PCL2 C-terminal 12 aa], the values for the protein stability index in the data set with Saccharomyces cerevisiae [3] (setting [4]) and with Saccharomyces cerevisiae [3] (genetic background: wild type) were 0.6868 ± 0.0023 and 0.682 ± 0.033, respectively.

“VKKYSMKKKKKR [YDR320W-B C-terminal 12 aa]”: the protein stability index stood at 0.671 ± 0.014 in the data set with Saccharomyces cerevisiae [3] (setting [4]) and 0.62 ± 0.0065 with Saccharomyces cerevisiae [3] (genetic background: wild type).

Take VKNWSKSILGFN [MSC1 C-terminal 12 aa]: the values for the protein stability index in the data set on Saccharomyces cerevisiae [3] (setting [4]) and with Saccharomyces cerevisiae [3] (genetic background: wild type) were 0.7095 ± 0.004 and 0.666 ± 0.021, respectively.

Take VLGDCQHVTSLL [HST4 C-terminal 12 aa]: the results for the protein stability index in the data set on Saccharomyces cerevisiae [3] (setting [4]) and in the data set with Saccharomyces cerevisiae [3] (genetic background: wild type) were 0.697 ± 0.015 and 0.7204 ± 0.0067, respectively.

In the case of VLREEVKKEEEN [KRS1 C-terminal 12 aa], the figures for the protein stability index in the data set on Saccharomyces cerevisiae [3] (setting [4]) and in the data set with Saccharomyces cerevisiae [3] (genetic background: wild type) were 0.6913 ± 0.006 and 0.7 ± 0.025, respectively.

As for VLVFSWRHIFCF [YJL120W C-terminal 12 aa], the protein stability index worked out at 0.467 ± 0.026 in the data set with Saccharomyces cerevisiae [3] (setting [4]) and 0.179 ± 0.0033 in the data set with Saccharomyces cerevisiae [3] (genetic background: wild type).

As for VNLDVTEDDKQK [STE20 C-terminal 12 aa], the results for the protein stability index with Saccharomyces cerevisiae [3] (setting [4]) and with Saccharomyces cerevisiae [3] (genetic background: wild type) were 0.6857 ± 0.0021 and 0.67 ± 0.04, respectively.

Consider VNPKAKRPSNEK [NOP2 C-terminal 12 aa], for which the protein stability index was 0.712 ± 0.044 in the data set on Saccharomyces cerevisiae [3] (setting [4]) and 0.754 ± 0.042 in the data set with Saccharomyces cerevisiae [3] (genetic background: wild type).

On to VNRQLEMDLPIE [YKL066W C-terminal 12 aa], for which the protein stability index was found to be 0.7074 ± 0.0056 in the data set on Saccharomyces cerevisiae [3] (setting [4]) and 0.712 ± 0.042 in the data set with Saccharomyces cerevisiae [3] (genetic background: wild type).

As for VPLGPKPDISRL [GTO1 C-terminal 12 aa], the values for the protein stability index with Saccharomyces cerevisiae [3] (setting [4]) and in the data set with Saccharomyces cerevisiae [3] (genetic background: wild type) were 0.7047 ± 0.0045 and 0.712 ± 0.041, respectively.

Consider VPNDNNEQRSSQ [SAN1 C-terminal 12 aa], for which the protein stability index in the data set on Saccharomyces cerevisiae [3] (setting [4]) is 0.7041 ± 0.0064; with Saccharomyces cerevisiae [3] (genetic background: wild type), 0.662 ± 0.011.

As to VPRFKDIFDDLS [DOA1 C-terminal 12 aa], the protein stability index came to 0.7313 ± 0.0058 with Saccharomyces cerevisiae [3] (setting [4]) and 0.719 ± 0.0078 in the data set with Saccharomyces cerevisiae [3] (genetic background: wild type).

Consider “VQCVCFNVEMRL [YIL046W-A C-terminal 12 aa]”, for which the protein stability index in the data set on Saccharomyces cerevisiae [3] (setting [4]) was determined as 0.662 ± 0.015; in the data set with Saccharomyces cerevisiae [3] (genetic background: wild type), 0.676 ± 0.091.

As for VQHDPSVHTNQL [MAE1 C-terminal 12 aa], the protein stability index stood at 0.6923 ± 0.0028 in the data set with Saccharomyces cerevisiae [3] (setting [4]) and 0.664 ± 0.029 with Saccharomyces cerevisiae [3] (genetic background: wild type).

As to VQNWKPKPFGVL [LAS1 C-terminal 12 aa], the figures for the protein stability index with Saccharomyces cerevisiae [3] (setting [4]) and in the data set on Saccharomyces cerevisiae [3] (genetic background: wild type) were 0.707 ± 0.015 and 0.737 ± 0.059, respectively.

On to VRDHFGVINSIW [YJL070C C-terminal 12 aa], for which the results for the protein stability index with Saccharomyces cerevisiae [3] (setting [4]) and in the data set with Saccharomyces cerevisiae [3] (genetic background: wild type) were 0.715 ± 0.051 and 0.694 ± 0.011, respectively.

As for VRKDYIALINQY [ADI1 C-terminal 12 aa], the protein stability index came out at 0.6715 ± 0.0042 with Saccharomyces cerevisiae [3] (setting [4]) and 0.652 ± 0.01 in the data set on Saccharomyces cerevisiae [3] (genetic background: wild type).

In the case of VRQVEEDENYDD [CYC8 C-terminal 12 aa], the figures for the protein stability index in the data set on Saccharomyces cerevisiae [3] (setting [4]) and in the data set on Saccharomyces cerevisiae [3] (genetic background: wild type) were 0.7 ± 0.024 and 0.748 ± 0.076, respectively.

In the case of VRYVIIHRHTST [RMD8 C-terminal 12 aa], the protein stability index was 0.648 ± 0.0073 in the data set on Saccharomyces cerevisiae [3] (setting [4]) and 0.599 ± 0.0066 with Saccharomyces cerevisiae [3] (genetic background: wild type).

Take VSDSEQSDTKGI [UAF30 C-terminal 12 aa]: the protein stability index in the data set on Saccharomyces cerevisiae [3] (setting [4]) was found to be 0.6733 ± 0.0011; in the data set on Saccharomyces cerevisiae [3] (genetic background: wild type), 0.676 ± 0.016.

Take VSLKKGKLKAHC [YAP7 C-terminal 12 aa]: the protein stability index was determined as 0.673 ± 0.016 in the data set on Saccharomyces cerevisiae [3] (setting [4]) and 0.692 ± 0.019 in the data set on Saccharomyces cerevisiae [3] (genetic background: wild type).

Regarding VTAGKAKFVLYN [SUN4 C-terminal 12 aa], the protein stability index with Saccharomyces cerevisiae [3] (setting [4]) is 0.665 ± 0.0087; in the data set on Saccharomyces cerevisiae [3] (genetic background: wild type), 0.445 ± 0.012.

On to VTVLRNSQYFFS [RPO41 C-terminal 12 aa], for which the protein stability index in the data set with Saccharomyces cerevisiae [3] (setting [4]) came out at 0.741 ± 0.039; in the data set with Saccharomyces cerevisiae [3] (genetic background: wild type), 0.728 ± 0.018.

These data come from the supplement of paper PMC10724198.
